This is an account of results in article PMC3855536.

Substrate in this series: C=C(O[C@@H]1C=C(C(=O)O)C=C[C@H]1O)C(=O)O
Kind of series: steady-state kinetics. Type of series: biochemical, Thermus thermophilus. To be noted: dehydration of chorismate to 12.

B1: MqnA (TTHA0803) (Thermus thermophilus HB8) (protein)
chain: MRPYVLGLPRYANVAPLHHFLRLEGFRVLHAVPAELNRLLLSGEVGLSLVSSYFYLKHQDSLGLLPDFSVAVLGRVYSVNLFHKGALPHLARVALTTESATSVALLKLLLKEAGAGPRYERREGGLELLSAYDGVLLIGDRAIKAYAALLPEVPETPHALPTRFGEVEVADLSTLWFQRTHLPFVFAVWAYRRENPPPKALVQALREARREGLGRLREVAEAEARRLGVHPLLLQHYLWNFRYHLEEPDRLGLKAFAEALGLPFAPMFYPE
Regarding B1, the Km (in general, the concentration of substrate that gives half-maximal velocity) was 161.6 ± 7.1 µM and the kcat is 1.27 ± .02 s⁻¹.
